Where two headings read alike, the source gives them in different places.
T1: mFc tagged human LAG3 ECD recombinant protein (human, UniProt P18627 23-450)
T1 construct: extracellular domain; purchased from Biointron; not shown: mouse IgG Fc (mFc) tag
T1 sequence (looked up): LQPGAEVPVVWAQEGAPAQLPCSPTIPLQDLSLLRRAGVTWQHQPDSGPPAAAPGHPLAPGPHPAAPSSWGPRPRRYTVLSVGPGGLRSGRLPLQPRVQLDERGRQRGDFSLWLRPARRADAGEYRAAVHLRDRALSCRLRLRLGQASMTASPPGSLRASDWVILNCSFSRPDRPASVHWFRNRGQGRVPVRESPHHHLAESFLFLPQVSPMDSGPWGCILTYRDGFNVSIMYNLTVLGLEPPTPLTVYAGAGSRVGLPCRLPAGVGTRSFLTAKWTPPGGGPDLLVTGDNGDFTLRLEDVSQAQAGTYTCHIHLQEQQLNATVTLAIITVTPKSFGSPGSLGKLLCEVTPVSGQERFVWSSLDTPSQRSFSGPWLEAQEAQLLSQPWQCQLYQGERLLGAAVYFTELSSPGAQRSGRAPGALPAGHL

T2: human LAG3 (form used in Octet, Biacore and HDX-MS not given) (human, UniProt P18627 23-450, limits assumed)
T2 sequence (looked up): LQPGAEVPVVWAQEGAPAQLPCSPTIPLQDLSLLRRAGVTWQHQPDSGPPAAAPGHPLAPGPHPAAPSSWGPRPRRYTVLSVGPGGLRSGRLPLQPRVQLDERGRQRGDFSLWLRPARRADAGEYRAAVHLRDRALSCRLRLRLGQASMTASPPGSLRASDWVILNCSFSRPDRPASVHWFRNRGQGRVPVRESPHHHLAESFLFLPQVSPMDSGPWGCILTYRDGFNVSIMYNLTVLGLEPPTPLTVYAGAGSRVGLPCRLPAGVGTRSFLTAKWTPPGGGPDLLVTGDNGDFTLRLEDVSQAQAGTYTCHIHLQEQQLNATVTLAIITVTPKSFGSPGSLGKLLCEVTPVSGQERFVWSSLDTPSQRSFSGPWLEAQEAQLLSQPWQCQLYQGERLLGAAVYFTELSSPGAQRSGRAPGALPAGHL

T3: human LAG3, full length, stably expressed on cells (human, UniProt P18627 23-525)
T3 construct: whole, on cells; also called CHOK1-human LAG3
T3 sequence (looked up): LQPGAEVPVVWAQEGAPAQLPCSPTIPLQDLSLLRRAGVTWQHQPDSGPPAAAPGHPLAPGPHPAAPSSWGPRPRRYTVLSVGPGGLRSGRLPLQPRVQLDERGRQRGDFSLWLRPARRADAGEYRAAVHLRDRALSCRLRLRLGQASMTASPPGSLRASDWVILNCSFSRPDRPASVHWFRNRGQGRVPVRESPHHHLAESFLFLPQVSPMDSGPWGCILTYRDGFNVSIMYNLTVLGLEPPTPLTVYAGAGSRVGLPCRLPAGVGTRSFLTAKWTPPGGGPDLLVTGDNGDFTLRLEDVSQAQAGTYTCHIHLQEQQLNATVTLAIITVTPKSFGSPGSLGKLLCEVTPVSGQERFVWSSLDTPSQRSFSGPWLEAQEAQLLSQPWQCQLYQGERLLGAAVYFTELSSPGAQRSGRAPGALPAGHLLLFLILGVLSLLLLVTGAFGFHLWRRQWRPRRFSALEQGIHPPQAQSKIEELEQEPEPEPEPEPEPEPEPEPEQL

T4: hFc tagged human LAG3 ECD recombinant protein (human, UniProt P18627 23-450)
T4 construct: range 23-450; also called biotin labelled hFc tagged human LAG3 ECD; not shown: human IgG Fc tag
T4 sequence (looked up): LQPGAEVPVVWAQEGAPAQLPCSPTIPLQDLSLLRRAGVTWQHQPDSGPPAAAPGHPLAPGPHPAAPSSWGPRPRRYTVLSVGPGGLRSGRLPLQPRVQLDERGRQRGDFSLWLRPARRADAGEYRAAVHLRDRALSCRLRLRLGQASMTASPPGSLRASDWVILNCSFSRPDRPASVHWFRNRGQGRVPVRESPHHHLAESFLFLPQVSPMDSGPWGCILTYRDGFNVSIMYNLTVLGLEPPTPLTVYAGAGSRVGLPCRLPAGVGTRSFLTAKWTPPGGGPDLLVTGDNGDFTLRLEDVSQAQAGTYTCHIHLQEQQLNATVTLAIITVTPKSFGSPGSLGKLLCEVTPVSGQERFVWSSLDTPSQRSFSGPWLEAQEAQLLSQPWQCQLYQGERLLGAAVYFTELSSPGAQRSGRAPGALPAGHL


Tests used:
[1] = molecular target: T1, mFc tagged human LAG3 ECD recombinant …; experiment: competitive FACS: mFc tagged human LAG3 ECD binding to MHC II on Raji cells
Protocol: (§1) Activity of the purified chimeric antibodies to block LAG3 and MHC II interaction was determined by competitive FACS assay. […] After washing, dye labeled anti-mouse Fc 2nd antibody (Sigma) was added and incubated at 37° C. for 1 hour. Fluorescence intensity was detected.

[2] = molecular target: T2, human LAG3 (form used in Octet, Biacore …); experiment: BLI (Octet), 1:1 fit
Protocol: (§2) The association and dissociation curves were fit with 1:1 binding model, and the Ka/Kd/KD values for each antibody were calculated.
as §2

[3] = molecular target: T1, mFc tagged human LAG3 ECD recombinant …; experiment: competitive FACS: mFc tagged human LAG3 ECD binding to MHC II on Raji cells; remark: listed apart in the source
Protocol: as §1

[4] = molecular target: T3, human LAG3, full length, stably …; experiment: FACS on 293F cells stably expressing human LAG3
Protocol: Briefly the antibodies were incubated with 2×10⁵ target cells at 4° C. for 1 hour. After washing, fluorescence labeled anti-mouse IgG 2nd antibody (Life Technologies) was added and incubated at 4° C. for 1 hour. Geometric median fluorescence intensity (MFI) was detected and EC₅₀ was calculated using GraphPad Prism9.0.
MFI was detected and EC₅₀ was calculated using GraphPad Prism9.0.

[5] = molecular target: T2, human LAG3 (form used in Octet, Biacore …); experiment: BLI (Octet)
[6] = molecular target: T1, mFc tagged human LAG3 ECD recombinant …; experiment: competitive FACS: mFc-LAG3 ECD binding to Raji cells (MHC II)
Protocol: as §1

[7] = molecular target: T4, hFc tagged human LAG3 ECD recombinant …; experiment: competitive ELISA format II: biotin hFc-LAG3 ECD binding to coated His-FGL1
Protocol: After washing, HRP labeled anti-His 2nd antibody (Sigma) was added and incubated at 37° C. for 1 hour. Then, 100 μl/well of TMB solution (Biotechnology) was added. After incubation for 15 minutes at room temperature, the reaction was stopped by the addition of 50 μl of 1N HCl. OD 450 nm was read. […] After washing, HRP labeled anti-SA 2nd antibody (Sigma) was added and incubated at 37° C. for 1 hour. Then, 100 μl/well of TMB solution (Biotechnology) was added. After incubation for 15 minutes at room temperature, the reaction was stopped by the addition of 50 μl of 1N HCl. OD 450 nm was read. […] The competition assay of format III is a competitive FACS assay. […] After washing, dye labeled anti-His 2nd antibody (Sigma) was added and incubated at 37° C. for 1 hour. Fluorescence intensity was detected.

[8] = molecular target: T2, human LAG3 (form used in Octet, Biacore …); experiment: SPR (Biacore), 1:1 fit
Protocol: as §2

%Blocking at 2 nM [1] [%]	%Blocking at 4 nM [1] [%]	%Blocking at 8 nM [1] [%]	Kd [2] [nM]	koff [2] [s⁻¹]	kon [2] [M⁻¹ s⁻¹]	%Blocking at 4 nM [3] [%]	%Blocking at 8 nM [3] [%]	EC50 [4] [nM]	TOP MFI [4]	Kd [5] [nM]	koff [5] [s⁻¹]	kon [5] [M⁻¹ s⁻¹]	IC50 [6] [nM]	TOP blocking (%) [6] [%]	IC50 [7] [nM]	TOP blocking (%) [7] [%]	Kd [8] [nM]	koff [8] [s⁻¹]	kon [8] [M⁻¹ s⁻¹]	Binder
								0.17	3140	0.0782	2.37e-05	303000	5.8	99.3	1.2	83.9	0.0205	9.1e-05	4.43e+06	hu023.11 (antibody, human IgG4, V domains shown, humanized from 023c) VH: QVQLVQSGPELKKPGASVKVSCKASGYTFTESPMNWVRQAPGQGFEWMGIIYTDTGEPTYAEEFKGRFVFSLDTSVSTAYLQISSLKAEDTAVYFCVSDYGSILYWYFDVWGQGTLVTVSS VL: DIQMTQSPSSLSASVGDRVTITCKASQDVSTAVAWYQQKPGKSPKLLIYSASYRYTGVPSRFSGSGSGTDFTFTISSLQPEDFATYYCQQHYNAPPTFGQGTKLEIK
			4.08	0.0207	5.06e+06	62.8	99.4													hu029.55.S93Q (antibody, V domains shown) VH: QVQLVESGGGLVKPGGSLRLSCAASGFTFSSYAMSWIRQAPGKGLEWVSYVTSGGDYIYYADTVKGRFTISRDDAKNSLYLQMNSLRAEDTAVYYCTRVAYDYEWYFDVWGQGTLVTVSS VL: DIQMTQSPSSVSASVGDRVTITCKASQDVTTAVAWYQQKPGKAPKLLIYSASYRYTGVPSRFSGSGSGTDFTLTISSLQPEDFATYYCQQHDQSPWTFGQGTKLEIK

Second part, the binder before the results:

Binder	%Blocking at 2 nM [1] [%]	%Blocking at 4 nM [1] [%]	%Blocking at 8 nM [1] [%]	Kd [2] [nM]	koff [2] [s⁻¹]	kon [2] [M⁻¹ s⁻¹]	%Blocking at 4 nM [3] [%]	%Blocking at 8 nM [3] [%]	EC50 [4] [nM]	TOP MFI [4]	Kd [5] [nM]	koff [5] [s⁻¹]	kon [5] [M⁻¹ s⁻¹]	IC50 [6] [nM]	TOP blocking (%) [6] [%]	IC50 [7] [nM]	TOP blocking (%) [7] [%]	Kd [8] [nM]	koff [8] [s⁻¹]	kon [8] [M⁻¹ s⁻¹]
hu029.55 (antibody, V domains shown, humanized from 029c) VH: QVQLVESGGGLVKPGGSLRLSCAASGFTFSSYAMSWIRQAPGKGLEWVSYVTSGGDYIYYADTVKGRFTISRDDAKNSLYLQMNSLRAEDTAVYYCTRVAYDYEWYFDVWGQGTLVTVSS VL: DIQMTQSPSSVSASVGDRVTITCKASQDVTTAVAWYQQKPGKAPKLLIYSASYRYTGVPSRFSGSGSGTDFTLTISSLQPEDFATYYCQQHDSSPWTFGQGTKLEIK	18.9	37.5	98.8	4.42	0.0197	4.47e+06	26	96.7												
hu023.04 (antibody, human IgG4, V domains shown, humanized from 023c) VH: QVQLVQSGAEVKKPGASVKVSCKASGYTFTESPMNWVRQAPGQGFEWMGIIYTDTGEPTYAEEFKGRVTMTRDTSTSTVYMELSSLRSEDTAVYFCASDYGSILYWYFDVWGQGTLVTVSS VL: DIQMTQSPSSLSASVGDRVTITCKASQDVSTAVAWYQQKPGKAPKLLIYSASYRYTGVPSRFSGSGSGTDFTLTISSLQPEDFATYYCQQHYNAPPTFGQGTKLEIK									0.4	3180	0.537	0.000164	305000	5.9	99.2	1.7	82.2	0.242	0.000402	1.66e+06

Source: US20250313625A1 (ELPISCIENCE SUZHOU BIOPHARMA, published 2025)
